Target: filamentous actin (F-actin) (rabbit, UniProt P68135 1-377)
Assay: co-sedimentation

Row | Kd [µM] | Binder
1 | ~10 | CLIP-170 S2-CG2-S3 fragment (H1 156-350) (domain or fragment) MVSSSPSTPSNIPQKPSQPAAKEPSATPPISNLTKTASESISNLSEAGSIKKGERELKIGDRVLVGGTKAGVVRFLGETDFAKGEWCGVELDEPLGKNDGAVAGTRYFQCQPKYGLFAPVHKVTKIGFPSTTPAKAKANAVRRVMATTSASLKRSPSASSLSSMSSVASSVSSRPSRTGLLTETSSRYARKISGT
2 | 20 | CLIP-170 CG2-S3 fragment (H1 203-350) (domain or fragment) GSIKKGERELKIGDRVLVGGTKAGVVRFLGETDFAKGEWCGVELDEPLGKNDGAVAGTRYFQCQPKYGLFAPVHKVTKIGFPSTTPAKAKANAVRRVMATTSASLKRSPSASSLSSMSSVASSVSSRPSRTGLLTETSSRYARKISGT
3 | ~90 | CLIP-170 CG2 fragment (H1 206-288) (domain or fragment) KKGERELKIGDRVLVGGTKAGVVRFLGETDFAKGEWCGVELDEPLGKNDGAVAGTRYFQCQPKYGLFAPVHKVTKIGFPSTTP

— doi:10.1101/2021.04.27.441644 (bioRxiv, 2021)
